Publication PMC9687312
pKd: −log10 of the molar value.

Tests used:
[1] = target: MGL Biot-ECD (biotinylated extracellular domain of MGL) (UniProt Q8IUN9); assay: SPR
[2] = target: DC-SIGN Biot-ECD (biotinylated extracellular domain of DC-SIGN) (UniProt Q9NNX6); assay: SPR
Sequence of UniProt Q9NNX6 (Q9NNX6 59-404): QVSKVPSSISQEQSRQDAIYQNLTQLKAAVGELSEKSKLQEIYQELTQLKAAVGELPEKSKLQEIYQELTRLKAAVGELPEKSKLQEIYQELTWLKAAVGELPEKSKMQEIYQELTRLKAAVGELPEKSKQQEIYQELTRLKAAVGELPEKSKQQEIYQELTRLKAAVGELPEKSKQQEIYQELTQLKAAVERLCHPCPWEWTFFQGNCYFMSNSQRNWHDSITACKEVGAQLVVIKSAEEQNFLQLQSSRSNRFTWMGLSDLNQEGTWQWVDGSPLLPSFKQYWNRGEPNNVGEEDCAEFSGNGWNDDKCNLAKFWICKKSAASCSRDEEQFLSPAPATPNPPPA

Sequence of UniProt Q8IUN9 (Q8IUN9 61-316): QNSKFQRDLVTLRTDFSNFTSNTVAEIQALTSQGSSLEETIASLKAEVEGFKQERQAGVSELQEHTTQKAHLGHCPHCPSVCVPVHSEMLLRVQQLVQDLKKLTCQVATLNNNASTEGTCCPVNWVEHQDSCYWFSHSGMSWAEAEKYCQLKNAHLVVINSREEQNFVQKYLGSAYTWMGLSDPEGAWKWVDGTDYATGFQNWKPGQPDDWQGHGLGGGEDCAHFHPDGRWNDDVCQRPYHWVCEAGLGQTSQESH

Q: How did the pKd [1] turn out when “Spike Receptor Binding Domain of SARS-CoV-2 fused to the SpyCatcher (RBD-SC) (from UniProt P0DTC2 320-554)” was run?
A: 6.01

Q: What about the pKd [2] of the same substance?
A: 6.22
